Consider two molecules from paper PMC8163507, “PHAROH lncRNA regulates Myc translation in hepatocellular carcinoma via sequestering TIAR”.

Data set [1] concerns the target T1, TIAR (nucleolysin TIAR, TIAL-1) (human, UniProt Q01085 1-375).
T1 sequence: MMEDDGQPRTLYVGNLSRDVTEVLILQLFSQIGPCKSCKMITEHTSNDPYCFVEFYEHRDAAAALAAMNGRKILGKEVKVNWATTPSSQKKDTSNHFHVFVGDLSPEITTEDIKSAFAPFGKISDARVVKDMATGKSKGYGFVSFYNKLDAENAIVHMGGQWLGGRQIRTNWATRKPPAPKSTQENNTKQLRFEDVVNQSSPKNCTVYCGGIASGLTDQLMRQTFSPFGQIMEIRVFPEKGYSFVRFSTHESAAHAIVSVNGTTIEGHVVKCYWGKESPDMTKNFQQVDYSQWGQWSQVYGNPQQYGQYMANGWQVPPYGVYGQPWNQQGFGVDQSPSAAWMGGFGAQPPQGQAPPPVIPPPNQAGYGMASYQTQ
The experiment in a line: EMSA; prefers one copy; three only at saturating TIAR; EMSA: ~2 fmol probe in 20 ul, 10 mM HEPES pH 7.3, 20 mM KCl, 1 mM MgCl2 (printed Mg2Cl2), 1 mM DTT, 30 ng/ul BSA, 0.01% NP-40, 5% glycerol, room temperature 30. To be noted: protein: commercial; label: 3' biotin; single strand; sites predicted largely in loop.

Data set [2] addresses T1, TIAR (nucleolysin TIAR, TIAL-1). Description: EMSA; densitometry of free probe; sequential shifts, prefers two and four copies; EMSA: ~2 fmol probe in 20 ul, 10 mM HEPES pH 7.3, 20 mM KCl, 1 mM MgCl2 (printed Mg2Cl2), 1 mM DTT, 30 ng/ul BSA, 0.01% NP-40, 5% glycerol, room temperature 30. To be noted: protein: commercial; hairpin (predicted).

B1: Myc 3' UTR 53-nt fragment (ssRNA)
RNA: GCUUCCCAUCUUUUUUCUUUUUCCUUUUAACAGAUUUGUAUUUAAUUGUUUUU
As to B1, in data set [1], the binding result is “binds”.

B2: PHAROH 71-nt hairpin (WT) (structured_RNA)
RNA: GAGAGGAUGCCACUGUUUUGAACUAUUUUGAAGGCACAGCCACCAGAGCUUUAGGGACAGGGUAUUUUAUC
As to B2, in data set [2], the Kd was approximately 2 nM.

The Kd is a measure of binding affinity in units of concentration.
